Target: T1, human α-CGRP 1-36-COOH (human)
T1 construct: free C-terminal carboxyl, not amidated; also called 1-36 (not amidated at the C-terminus)
T1 peptide: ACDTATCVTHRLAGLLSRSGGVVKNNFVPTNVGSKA
Test: Biacore competition, 50 nM G1 Fab with 10 µM peptide, read on human α-CGRP chip
From the text: Y axis represents percentage of binding blocked by the presence of the competing peptide compared with the binding in the absence of the competing peptide. […]

percentage of binding blocked by competing peptide: ~40%
B1: antibody G1 Fab fragment (Fab, V domains shown)
VH: EVQLVESGGGLVQPGGSLRLSCAASGFTFSNYWISWVRQAPGKGLEWVAEIRSESDASATHYAEAVKGRFTISRDNAKNSLYLQMNSLRAEDTAVYYCLAYFDYGLAIQNYWGQGTLVTVSS
VL: EIVLTQSPATLSLSPGERATLSCKASKRVTTYVSWYQQKPGQAPRLLIYGASNRYLGIPARFSGSGSGTDFTLTISSLEPEDFAVYYCSQSYNYPYTFGQGTKLEIK
